Assay results as given in the supplement of paper PMC10126150.
± gives the standard deviation of the averaged measurements.

Tested on: ATP
Experiment: switch fluorescence ratio, 500 uM ATP over buffer (Cy3 cluster intensity, sum of 5 cycles each) (fold (ratio)); higher = stronger signal-on switching upon ATP binding; sequences stand for … in TCGTCGGCAGCGTCAGATGTGTATAAGAGACAGTTTTTTTTTTTTTTTTTTTTTTTTT…TC
Conditions: aptamer strand: ATP DNA aptamer (quencher-CACCTGGGGGAGTATTGCGGAGGAAGG + anchor), 100 nM annealed; ATP concentration: 500 uM
Method in brief: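 Between each of five buffer/ATP cycles, the flow-cell was stripped with NaOH and re-annealed. Each cycle imaged Cy3-labelled switching-strand clusters, annealed to 100 nM quencher-labelled ATP aptamer on a modified Illumina MiSeq flow-cell, first in selection buffer and then after 15 min with 500 uM ATP at 22 °C. The fluorescence ratio is summed target-cycle over summed buffer-cycle Cy3 intensity per cluster, averaged per switch-domain sequence, with clusters outside 100-1000 RFU excluded.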
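Also: ATP exposure 15 min at 22 °C before imaging.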

Sequence | switch fluorescence ratio
CCAAGGCTTA | 1.06 ± 0.063
CCAAGGGTTT | 0.993 ± 0.06
CCAATAAATT | 0.974 ± 0.018
CCAATAGACG | 1.01 ± 0.03
CCAATCCAGT | 1.01 ± 0.013
CCAATGGGGG | 0.982 ± 0.04
CCAATTGTGG | 0.9977 ± 0.0056
CCAATTTTAA | 0.985 ± 0.029
CCACAGGGTG | 4.53 ± 1.5
CCACAGTAAT | 4.75 ± 0.34
CCACCGGGCC | 1.36 ± 0.076
CCACCTTACG | 1.54 ± 0.077
CCACGCGGCA | 1.19 ± 0.091
CCACGGACAA | 1.645 ± 0.0082
CCACGGGTTA | 1.045 ± 0.005
CCACGGTTAG | 0.981 ± 0.023
CCACGTTGAA | 1.05 ± 0.033
CCACTAGTCG | 1.02 ± 0.016
CCACTGTGGT | 0.978 ± 0.013
CCAGACACAG | 0.9849 ± 0.002
CCAGACTTTT | 0.999 ± 0.043
CCAGAGACCG | 1.04 ± 0.012
CCAGAGAGCC | 1.04 ± 0.028

Sequence | switch fluorescence ratio
CCAGAGGGAT | 0.992 ± 0.024
CCAGATGGCA | 1.02 ± 0.082
CCAGATTTTA | 0.992 ± 0.015
CCAGCAGGGA | 1.37 ± 0.49
CCAGCCAATA | 3.36 ± 0.12
CCAGCGGGGC | 1.05 ± 0.019
CCAGGAACTC | 1.02 ± 0.025
CCAGGACTGC | 0.972 ± 0.036
CCAGGGCAGC | 1.06 ± 0.079
CCAGGGCGTG | 1.02 ± 0.069
CCAGGGGGAA | 1.09 ± 0.12
CCAGGGGGGG | 1.24 ± 0.32
CCAGGGGGTT | 1.51 ± 0.59
CCAGGTAGG | 1.24 ± 0.068
CCAGGTTTCA | 1.03 ± 0.046
CCAGGTTTGT | 1.17 ± 0.016
CCAGGTTTTG | 1.08 ± 0.031
CCAGTAAAAT | 1.01 ± 0.019
CCAGTAAATT | 0.993 ± 0.046
CCAGTAATGT | 1.04 ± 0.041
CCAGTACTGA | 1.021 ± 0.0094
CCAGTCATTT | 1.03 ± 0.027
CCAGTGGGGC | 1.01 ± 0.072

Sequence | switch fluorescence ratio
CCAGTGTGTG | 1.09 ± 0.062
CCAGTTATGG | 0.999 ± 0.068
CCAGTTTGCA | 1.02 ± 0.017
CCATAAATAG | 1.169 ± 0.0077
CCATACGGGG | 0.998 ± 0.023
CCATATAGAG | 1.02 ± 0.027
CCATGCGATG | 1.21 ± 0.1
CCATGGTTGT | 1.011 ± 0.005
CCATGGTTTT | 1.0024 ± 0.00092
CCATGTATAA | 1.02 ± 0.016
CCATGTCAGC | 1.03 ± 0.021
CCATGTGAAG | 0.992 ± 0.027
CCATGTGTAG | 1 ± 0.017
CCATGTGTCG | 1.05 ± 0.064
CCATTAATAG | 1.04 ± 0.057
CCATTAGTTT | 0.987 ± 0.018
CCATTCTTGT | 1.04 ± 0.022
CCATTTCTGA | 1.03 ± 0.015
CCATTTGTGT | 0.976 ± 0.023
CCCAAAAACG | 1.25 ± 0.29
CCCAATTCCT | 1.14 ± 0.031
CCCAATTTCT | 1.05 ± 0.045
CCCACCGGGC | 1.05 ± 0.022

Sequence | switch fluorescence ratio
CCCACCGTTG | 1.17 ± 0.03
CCCAGCACGT | 1.37 ± 0.04
CCCAGGGT | 1.54 ± 0.67
CCCATTATGC | 1.13 ± 0.057
CCCATTGTCG | 1.01 ± 0.064
CCCATTTTGC | 1.032 ± 0.0067
CCCCAGAGCT | 1.66 ± 0.066
CCCCAGGGGT | 2.44 ± 2
CCCCGGCTGG | 1.125 ± 0.005
CCCCGGGGGG | 1.09 ± 0.15
CCCCTGTTTT | 1.01 ± 0.022
CCCGAAGGGC | 1.01 ± 0.081
CCCGACTTTA | 1.04 ± 0.014
CCCGAGTATG | 1.034 ± 0.0099
CCCGATGTTA | 0.9973 ± 0.0041
CCCGATTTTG | 1.023 ± 0.0069
CCCGGACGGT | 1 ± 0.025
CCCGGATTTG | 1.01 ± 0.055
CCCGGCTGTT | 1.02 ± 0.067
CCCGGGAAAT | 1.04 ± 0.059
CCCGGGAGGT | 1.035 ± 0.0094
CCCGGGGGCT | 1.41 ± 0.032
CCCGGGTTGG | 1.12 ± 0.08

Sequence | switch fluorescence ratio
CCCGGTATCG | 0.983 ± 0.013
CCCGGTTTAG | 1.03 ± 0.0015
CCCGTATATC | 2.72 ± 0.44
CCCGTGCCTA | 1.03 ± 0.064
CCCGTGTGAG | 0.983 ± 0.045
CCCTAGGATT | 1.01 ± 0.03
CCCTAGGGTC | 1.01 ± 0.023
CCCTAGGGTT | 1.44 ± 0.56
CCCTAGTATG | 0.9915 ± 0.0059
CCCTATTTGC | 1.06 ± 0.02
CCCTGATCTG | 1.02 ± 0.011
CCCTGGACGG | 0.9883 ± 0.0053
CCCTGTCATC | 2.1 ± 1.4
CCCTGTGAGC | 1.08 ± 0.013
CCCTTGATGC | 1.151 ± 0.008
CCGAAAAGCT | 1.17 ± 0.041
CCGAAGGTTA | 1.09 ± 0.032
CCGAATAATT | 1.08 ± 0.011
CCGAATAGTT | 1.18 ± 0.14
CCGAATTATA | 2.04 ± 1.3
CCGAATTGGG | 1.01 ± 0.032
CCGAGATCTT | 1.03 ± 0.032
CCGAGCTTGA | 1.61 ± 0.085

Sequence | switch fluorescence ratio
CCGAGGAATG | 1.106 ± 0.0083
CCGAGTTTGT | 1.05 ± 0.011
CCGATAATAG | 5.21 ± 2.2
CCGATTAAAT | 1.44 ± 0.1
CCGATTACGC | 1.9 ± 0.13
CCGATTGGCA | 1.55 ± 0.14
CCGATTGTTG | 1.02 ± 0.038
CCGCACGAGT | 3.73 ± 0.63
CCGCACTAAG | 3.94 ± 0.74
CCGCATTTGT | 2.68 ± 2.4
CCGCCATTGG | 1.62 ± 0.069
CCGCCGGGGT | 1.91 ± 0.31
CCGCGCTGCC | 2.71 ± 0.8
CCGCGGCTGG | 1.154 ± 0.01
CCGGAAGCAG | 3.95 ± 0.66
CCGGAATCAT | 1.127 ± 0.00097
CCGGAGGGAG | 1.0201 ± 0.0006
CCGGAGTTGG | 3.49 ± 0.11
CCGGATACGT | 1.39 ± 0.086
CCGGATTGTC | 1.13 ± 0.044
CCGGCGGGGC | 1 ± 0.013
CCGGCGGGGG | 1.4 ± 0.56
CCGGCTTGCA | 1.13 ± 0.017

Sequence | switch fluorescence ratio
CCGGGAAGGG | 1.05 ± 0.012
CCGGGAGCAG | 1.95 ± 0.61
CCGGGATGGT | 1.14 ± 0.057
CCGGGATTGA | 1.083 ± 0.0038
CCGGGCCAGC | 1.47 ± 0.063
CCGGGGAACA | 1.004 ± 0.0069
CCGGGGAAGT | 0.978 ± 0.031
CCGGGGACTG | 1.1 ± 0.033
CCGGGGATGT | 1.05 ± 0.04
CCGGGGATTC | 1.36 ± 0.2
CCGGGGGATG | 1.03 ± 0.042
CCGGGGGGGG | 1.1 ± 0.17
CCGGGGTAGA | 1.02 ± 0.023
CCGGGGTCGG | 1.04 ± 0.057
CCGGGGTGGT | 1.07 ± 0.035
CCGGGTATTG | 1.027 ± 0.0036
CCGGTAGGTA | 0.969 ± 0.011
CCGGTATGGT | 1.012 ± 0.0077
CCGGTCAGCC | 1.11 ± 0.039
